Molecular target: SARS-CoV-2 RBD-Fc fusion protein (SARS-CoV-2, UniProt P0DTC2)
Assay: ELISA
Details: both partners purified

Binder | fold change in EC50 compared to wild type [fold]
nCoVmab1 (antibody, V domains shown, also called nCoVFab1 in IgG1 format; source: 293F cells, purified (Protein A resin)) VH: QVQLVESGGGLVQPGGSLRLSCAASGFTVSSNYMSWVRQAPGKGLEWVSVIYSGGSTYYADSVKGRFTISRDNSKNTLYLQMNSLRAEDTAVYYCARGDGSDDYYYGMDVWGQGTTVTVSS VL: QSVVTQPPSVSGAQGQRVFISCTGNGANIGMGYDVHWYQQLPGRAPKLLIFGNTNRPSGVPDRFSASRSGTSASLAITGLQTADEADYYCQSYDGNLRASVFGGGTKLTVL | 1
nCoVmab2 (antibody, V domains shown, also called nCoVFab2 in IgG1 format; source: 293F cells, purified (Protein A resin)) VH: EVQLVQSGGGVVQPGRSLRLSCAASGFTVSSNYMSWVRQAPGKGLEWVSVIYSGGSTYYADSVKGRFTISRDNSKNTLYLQMNSLRAEDTAVYYCARGDGSDDYYYGMDVWGQGTTVTVSS VL: QAVLTQPSSVSGAPGQRVTISCTGSSSNVGAGYDVHWYQQLPGTAPKLLIYGNSNRPSGVPDRFSGSKSGTSASLAITGLQAEDEADYYCQSYDSSLSGSVFGGGTKLTVL | 1

— paper PMC8352940 (Nature Communications, 2021)
